# Results reported in paper PMC4931249.
# Molecular target: WT BG505 SOSIP.664 gp140 trimer (HIV-1 clade-A BG505)
# Experiment: negative-stain EM
substance,measurement,value
WT BG505 SOSIP.664 gp140 trimer (complex),stoichiometry N,3
